Consider two molecules from patent US20220275088A1 (Dana-Farber, published 2022).

The target in assay [1] is human PD-1 on cells (transfected Expi293 cells, PHA-cultured T cells, cells of the Promega PD1-PDL1 bioassay, … (human, UniProt Q15116 25-288)). The assay can be described thus: cell-based or functional assay.
Assay [2] deals with T1, mouse PD-1 on transiently transfected Expi293 cells (mouse, UniProt Q02242 25-288).
T1 construct: whole, on cells; also called mPD-1
T1 sequence (looked up): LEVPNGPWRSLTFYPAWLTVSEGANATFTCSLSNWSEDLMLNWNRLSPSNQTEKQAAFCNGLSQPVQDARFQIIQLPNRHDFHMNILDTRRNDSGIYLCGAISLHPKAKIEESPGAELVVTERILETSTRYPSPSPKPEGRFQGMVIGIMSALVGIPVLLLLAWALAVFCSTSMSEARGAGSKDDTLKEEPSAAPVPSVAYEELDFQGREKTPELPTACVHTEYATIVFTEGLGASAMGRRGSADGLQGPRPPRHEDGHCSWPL
The assay can be described thus: flow cytometry on transiently transfected Expi293 cells, anti human Fc-APC. On the procedure: 3E5 transiently transfected Expi293 cells were suspended in 100 ul MACS buffer and added to each well. 50 ul of each antibody dilution were then mixed with the cells and the plate was incubated at 4° C. for 30 min. Following incubation, the plate was washed 2× with MACS buffer and then incubated with 1 ul/well anti human Fc-APC (Biolegend #409306). The plate was incubated for 25 min at 4° C. and then washed 3× before running the samples.
A general note: A flow cytometer gives signals particle by particle.

Sequence of human PD-1 on cells (transfected Expi293 cells, PHA-cultured T cells, cells of the Promega PD1-PDL1 bioassay, … (Q15116 25-288): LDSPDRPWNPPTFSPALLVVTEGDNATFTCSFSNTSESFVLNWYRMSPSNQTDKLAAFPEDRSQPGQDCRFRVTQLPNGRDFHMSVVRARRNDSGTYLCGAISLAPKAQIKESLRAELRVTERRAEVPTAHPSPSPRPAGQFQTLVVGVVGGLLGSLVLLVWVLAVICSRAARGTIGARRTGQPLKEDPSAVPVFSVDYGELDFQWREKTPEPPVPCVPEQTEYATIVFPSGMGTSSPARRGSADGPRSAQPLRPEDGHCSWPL

B1: P4-B3 IgG1 wild type monomer (antibody, V domains shown)
VH: QVQLVQSGGGLVQPGRSLRLSCAASGFTFDDYAMHWVRQAPGKGLEWVSGISWNSGSIGYADSVKGRFTVSRDNAKNSLYLQMNSLRAEDTAVYYCASDYGDKYYYYGMDVWGKGTTVTVSS
VL: QPGLTQPPSASGTPGQRVTISCSGSSSNIGSNTVNWYQQFPGKAPKLLIFNDNQRPSGVPDRFSASKSGTSASLAISGLQSEDEADYYCAAWDGGLNGRGVFGGGTKLTVLG
On to B1, for which the “fold induction (RLU stimulated/RLU unstimulated), Promega PD1-PDL1 bioassay” value in assay [1] is ~0.5 fold of the signal of pembro and nivo.

B2: P4-B3 (Example 8, format not stated) (antibody, V domains shown)
VH: B1 VH
VL: QPGLTQPPSASGTPGQRVTISCSGSSSNIGSNTVNWYQQFPGKAPKLLIFNDNQRPSGVPDRFSASKSGTSASLAISGLQSEDEADYYCAAWDGGLNGRGVFGGGTKLTVL
notes: Detected with anti human Fc-APC, so it carries a human Fc
As to B2, the binding result in assay [2] is “binds”.
